Our source for the Kd values is PMC10533329.

This assay concerns the target RGA5 HMA domain (rice (Oryza sativa)) (UniProt F7J0N2). As to the kind of experiment: SPR; Biacore […]) or 50 to 0 µM ([…]; HBS-EP+ buffer; 1:1 binding model, kinetic fit. Background: Surface plasmon resonance follows binding to a sensor surface in real time, without labels.
UniProt F7J0N2, sequence (F7J0N2 997-1066): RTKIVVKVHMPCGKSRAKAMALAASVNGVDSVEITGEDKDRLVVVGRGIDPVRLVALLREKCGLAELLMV

Usually Kd stands for a measure of binding affinity in units of concentration. “AVR-Pia (purified) (from UniProt B9WZW9 1-85) (natural protein)” gave a Kd of 26.8 µM. That is a double-digit micromolar value.
